Source: the supplement of paper PMC9112550, “Optimization of the antimicrobial peptide Bac7 by deep mutational scanning” (BMC Biology, 2022)

Test system: Escherichia coli TOP10
Test: shrunken log2 fold change of peptide-encoding DNA abundance (4.5 h post-induction vs induction); higher = less antimicrobial activity (less host growth inhibition)
Details: time post-induction: 4.5 h; library: site-saturation at positions 5, 18, 19, 20
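Also: peptides expressed intracellularly from a pBAD plasmid library in pooled LB shake-flask culture, induced with 0.3% L-arabinose, DNA abundance read by NGS, three biological replicates, DESeq2 with apeglm shrinkage.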

Sequence	shrunken log2 fold change
RRIRDRPPRLPRPRPRPVDHPRP	-0.173
RRIRHRPPRLPRPRPRPDDWPRP	-0.0115
RRIRCRPPRLPRPRPRPCHEPRP	-0.0566
RRIRWRPPRLPRPRPRPLVCPRP	0.476
RRIRNRPPRLPRPRPRPIPWPRP	-0.102
RRIRGRPPRLPRPRPRPYFWPRP	0.0833
RRIRCRPPRLPRPRPRPETQPRP	0.0409
RRIRMRPPRLPRPRPRPKRFPRP	0.483
RRIRGRPPRLPRPRPRPPRAPRP	1.25
RRIRARPPRLPRPRPRPPRSPRP	1.12
RRIRWRPPRLPRPRPRPNGPPRP	-0.0107
RRIRMRPPRLPRPRPRPRCCPRP	0.373
RRIRERPPRLPRPRPRPQRCPRP	-0.0721
RRIRHRPPRLPRPRPRPQRFPRP	-0.0098
RRIRHRPPRLPRPRPRPTNGPRP	-0.154
RRIRIRPPRLPRPRPRPMQDPRP	-0.223
RRIRRRPPRLPRPRPRPQNAPRP	0.0513
RRIRQRPPRLPRPRPRPQPYPRP	-0.0274
RRIRYRPPRLPRPRPRPLKKPRP	-0.339
RRIRCRPPRLPRPRPRPRVDPRP	0.113
RRIRHRPPRLPRPRPRPFIKPRP	-0.138
RRIRVRPPRLPRPRPRPVRYPRP	-0.136

Sequence	shrunken log2 fold change
RRIRFRPPRLPRPRPRPVFKPRP	-0.57
RRIRQRPPRLPRPRPRPLDRPRP	0.0981
RRIRGRPPRLPRPRPRPNGFPRP	0.0031
RRIRLRPPRLPRPRPRPLTRPRP	1.93
RRIRCRPPRLPRPRPRPETHPRP	0.0444
RRIRKRPPRLPRPRPRPRDEPRP	-0.0461
RRIRSRPPRLPRPRPRPDTIPRP	-1.3
RRIRDRPPRLPRPRPRPMISPRP	0.185
RRIRVRPPRLPRPRPRPQGSPRP	-0.205
RRIRTRPPRLPRPRPRPENIPRP	-0.0809
RRIRQRPPRLPRPRPRPESRPRP	-0.00904
RRIRYRPPRLPRPRPRPIVVPRP	-0.414
RRIRMRPPRLPRPRPRPTAAPRP	2.79
RRIRFRPPRLPRPRPRPNLKPRP	-0.553
RRIRNRPPRLPRPRPRPMSVPRP	0.0774
RRIRLRPPRLPRPRPRPTAPPRP	0.645
RRIRNRPPRLPRPRPRPMEFPRP	-0.136
RRIRDRPPRLPRPRPRPPSKPRP	0.0904
RRIRGRPPRLPRPRPRPHIKPRP	-0.0279
RRIRERPPRLPRPRPRPYWLPRP	-0.294
RRIRYRPPRLPRPRPRPAEMPRP	-1.02
RRIRQRPPRLPRPRPRPIRWPRP	-0.0554

Sequence	shrunken log2 fold change
RRIRIRPPRLPRPRPRPDFDPRP	-0.137
RRIRIRPPRLPRPRPRPLWTPRP	-0.339
RRIRHRPPRLPRPRPRPHAIPRP	-0.251
RRIRTRPPRLPRPRPRPRTTPRP	0.419
RRIRKRPPRLPRPRPRPPTRPRP	1.49
RRIRGRPPRLPRPRPRPCKWPRP	-0.075
RRIRPRPPRLPRPRPRPCGTPRP	0.155
RRIRCRPPRLPRPRPRPMIPPRP	-0.231
RRIRYRPPRLPRPRPRPCLCPRP	-0.453
RRIRARPPRLPRPRPRPFSGPRP	-0.00374
RRIRRRPPRLPRPRPRPKLWPRP	0.701
RRIRPRPPRLPRPRPRPIMFPRP	-0.37
RRIRKRPPRLPRPRPRPDWFPRP	0.178
RRIRARPPRLPRPRPRPFDIPRP	-0.127
RRIRIRPPRLPRPRPRPILDPRP	-0.797
RRIRKRPPRLPRPRPRPAGLPRP	0.126
RRIRVRPPRLPRPRPRPQYVPRP	-0.262
RRIRDRPPRLPRPRPRPPAKPRP	0.443
RRIRCRPPRLPRPRPRPLFKPRP	-0.475
RRIRRRPPRLPRPRPRPKRFPRP	0.305
RRIRIRPPRLPRPRPRPVNPPRP	1.75
RRIRYRPPRLPRPRPRPFKEPRP	-0.146

Sequence	shrunken log2 fold change
RRIRMRPPRLPRPRPRPTYHPRP	-0.242
RRIRIRPPRLPRPRPRPSFTPRP	-0.573
RRIRARPPRLPRPRPRPSGIPRP	0.0311
RRIRERPPRLPRPRPRPPHMPRP	-0.152
RRIRRRPPRLPRPRPRPGWAPRP	0.573
RRIRGRPPRLPRPRPRPCWCPRP	0.171
RRIRKRPPRLPRPRPRPYESPRP	0.0419
RRIRRRPPRLPRPRPRPITRPRP	0.0299
RRIRCRPPRLPRPRPRPEHYPRP	-0.625
RRIRMRPPRLPRPRPRPFVPPRP	-0.375
RRIRDRPPRLPRPRPRPRKCPRP	-0.0114
RRIRWRPPRLPRPRPRPDCSPRP	0.113
RRIRKRPPRLPRPRPRPLPEPRP	0.351
RRIRDRPPRLPRPRPRPLNLPRP	-0.324
RRIRKRPPRLPRPRPRPPAPPRP	1.14
RRIRVRPPRLPRPRPRPYHIPRP	-1.2
RRIRPRPPRLPRPRPRPCLCPRP	-0.222
RRIRLRPPRLPRPRPRPGSWPRP	0.18
RRIRFRPPRLPRPRPRPRHAPRP	0.389
RRIRMRPPRLPRPRPRPSDMPRP	0.0637
RRIRQRPPRLPRPRPRPCHTPRP	-0.207
RRIRKRPPRLPRPRPRPMEAPRP	0.0719

Sequence	shrunken log2 fold change
RRIRNRPPRLPRPRPRPMYRPRP	-0.473
RRIRGRPPRLPRPRPRPHWTPRP	0.00915
RRIRDRPPRLPRPRPRPNFFPRP	0.144
RRIRRRPPRLPRPRPRPEPLPRP	0.137
RRIRRRPPRLPRPRPRPHTHPRP	-0.11
RRIRERPPRLPRPRPRPRWWPRP	0.0167
RRIRIRPPRLPRPRPRPHVQPRP	-0.131
RRIRWRPPRLPRPRPRPCDAPRP	0.138
RRIRCRPPRLPRPRPRPRWGPRP	0.495
RRIRERPPRLPRPRPRPHTAPRP	-0.14
RRIRLRPPRLPRPRPRPRSRPRP	0.394
RRIRYRPPRLPRPRPRPPWGPRP	-0.0336
RRIRNRPPRLPRPRPRPNNIPRP	-0.551
RRIRIRPPRLPRPRPRPSFQPRP	-0.329
RRIRPRPPRLPRPRPRPFALPRP	0.238
RRIRDRPPRLPRPRPRPKANPRP	0.091
RRIRHRPPRLPRPRPRPKKLPRP	-0.104
RRIRCRPPRLPRPRPRPPWGPRP	0.122
RRIRARPPRLPRPRPRPPVIPRP	0.0687
RRIRYRPPRLPRPRPRPMHKPRP	-0.454
RRIRTRPPRLPRPRPRPMELPRP	-0.172
